Reference: patent US20020160516A1, “Episomal expression vector for human gene therapy and expression system for production of proteins” (priority 1993, published 2002)
Values after ≈ are worked out from the molar mass of the structure shown.

Experiments:
[1] = system: 107/402-T expression in HT-1376 tet-off clone; experiment: Doxycycline control of 107/402-T expression in HT-1376 tet-off clone (Western blot); type: cell-based; details: Homo sapiens, 96 h, Western blot 4 days after exposure, read-out: half-maximal inhibitory concentration for 107/402-T expression
Text: To prepare a human cell line in which expression of 107/402-T would be under control of doxycycline, HT-1376 human bladder carcinoma cells were sequentially transfected with three plasmid constructs: (a) pTET-OFF, which encodes the tetracycline-controlled transcriptional transactivator (tTA) under control of the CMV immediate-early promoter and the neomycin resistance gene under control of the SV40 early promoter, (b) pTRE.107/402-T, which encodes 107/402-T under control of the CMV minimal promoter and contains the tetracycline operon (binding site of tTA just upstream of the CMV minimal promoter), and (c) pCMVhygro, which encodes the hygromycin resistance gene under control of the CMV promoter. HT-1376 cells were first transfected with pTET-OFF, and neomycin resistant clones of stable transfectants were characterized by transiently transfecting clones with pTRE.luciferase in the presence or absence of doxycycline. Clones which yielded significant luciferase activity only in the absence of doxycycline (but no detectable luciferase activity in the presence of doxycycline) were then co-transfected with pTRE.107/402-T and pCMVhygro. Again, single cell clones of stable transfectants were screened for high basal levels of 107/402-T and complete turn-off of 107/402-T expression in the presence of doxycycline.
Steady-state levels of 107/402-T are achieved by 3 days. […]

human RB = molecular target: T1, human RB (Homo sapiens, UniProt P06400); type: binding
T1 sequence (P06400 1-928): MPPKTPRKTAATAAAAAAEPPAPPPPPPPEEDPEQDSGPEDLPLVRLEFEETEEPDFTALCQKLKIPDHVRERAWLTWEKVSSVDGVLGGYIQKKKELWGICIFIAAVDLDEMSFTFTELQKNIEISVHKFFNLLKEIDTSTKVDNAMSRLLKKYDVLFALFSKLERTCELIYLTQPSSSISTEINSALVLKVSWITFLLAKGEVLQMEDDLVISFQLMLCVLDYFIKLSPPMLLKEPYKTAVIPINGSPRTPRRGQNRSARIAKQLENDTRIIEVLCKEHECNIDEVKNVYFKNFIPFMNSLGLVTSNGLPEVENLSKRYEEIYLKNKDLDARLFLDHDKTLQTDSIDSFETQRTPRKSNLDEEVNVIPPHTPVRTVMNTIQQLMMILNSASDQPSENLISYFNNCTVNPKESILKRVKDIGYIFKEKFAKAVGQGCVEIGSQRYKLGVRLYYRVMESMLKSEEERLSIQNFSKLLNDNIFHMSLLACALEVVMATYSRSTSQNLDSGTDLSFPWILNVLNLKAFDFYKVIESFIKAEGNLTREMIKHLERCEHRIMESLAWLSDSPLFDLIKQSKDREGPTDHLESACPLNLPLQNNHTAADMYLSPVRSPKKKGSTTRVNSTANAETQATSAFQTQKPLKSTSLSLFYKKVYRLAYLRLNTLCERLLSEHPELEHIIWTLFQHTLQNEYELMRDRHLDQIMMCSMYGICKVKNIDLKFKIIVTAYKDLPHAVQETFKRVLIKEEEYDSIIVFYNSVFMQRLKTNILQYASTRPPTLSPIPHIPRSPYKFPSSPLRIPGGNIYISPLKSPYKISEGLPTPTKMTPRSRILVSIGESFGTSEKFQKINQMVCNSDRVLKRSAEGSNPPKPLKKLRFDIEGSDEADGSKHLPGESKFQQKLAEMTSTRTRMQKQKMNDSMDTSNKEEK

p107 = molecular target: T2, p107 (Homo sapiens, UniProt P28749); type: binding
T2 sequence (P28749 1-1068): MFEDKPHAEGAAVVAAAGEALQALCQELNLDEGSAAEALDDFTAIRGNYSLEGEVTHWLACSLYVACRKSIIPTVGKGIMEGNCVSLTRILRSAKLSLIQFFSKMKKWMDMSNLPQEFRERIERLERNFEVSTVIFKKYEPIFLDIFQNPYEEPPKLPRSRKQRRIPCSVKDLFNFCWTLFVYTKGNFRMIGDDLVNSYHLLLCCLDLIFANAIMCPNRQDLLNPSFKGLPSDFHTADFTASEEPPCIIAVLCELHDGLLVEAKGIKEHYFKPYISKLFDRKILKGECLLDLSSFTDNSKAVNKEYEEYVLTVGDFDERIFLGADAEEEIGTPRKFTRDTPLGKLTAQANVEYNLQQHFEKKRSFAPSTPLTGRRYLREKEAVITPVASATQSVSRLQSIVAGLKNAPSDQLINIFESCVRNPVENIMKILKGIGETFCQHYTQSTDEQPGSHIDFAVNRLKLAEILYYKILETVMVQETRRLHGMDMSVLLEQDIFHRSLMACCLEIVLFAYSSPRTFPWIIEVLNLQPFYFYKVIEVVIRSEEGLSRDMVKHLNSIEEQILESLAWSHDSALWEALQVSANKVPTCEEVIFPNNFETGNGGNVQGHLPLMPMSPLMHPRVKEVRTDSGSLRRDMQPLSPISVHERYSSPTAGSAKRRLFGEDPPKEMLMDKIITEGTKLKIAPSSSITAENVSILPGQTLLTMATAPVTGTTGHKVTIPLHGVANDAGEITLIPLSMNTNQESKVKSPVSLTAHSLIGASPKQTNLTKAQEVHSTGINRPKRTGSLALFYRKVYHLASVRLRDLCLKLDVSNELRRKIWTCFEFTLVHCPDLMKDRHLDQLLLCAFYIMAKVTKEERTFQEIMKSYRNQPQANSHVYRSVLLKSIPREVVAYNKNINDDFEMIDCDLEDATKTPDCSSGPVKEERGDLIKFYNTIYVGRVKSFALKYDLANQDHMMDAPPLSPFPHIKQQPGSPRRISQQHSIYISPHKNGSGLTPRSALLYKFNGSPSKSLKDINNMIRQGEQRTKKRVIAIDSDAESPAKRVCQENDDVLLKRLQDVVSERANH

T24 cell line = experiment: Soft agar cloning of T24 clones expressing T antigens; details: T24 single cell clones expressing T antigen (SV-T clone A7, 402-T clone G1); ± se
Text: Transformed cells were trypsinized and then passed through a 30-micron nylon filter (Tetko, Lancaster, N.Y.) to achieve a single cell suspension. The bottom layer of agar consisted of low glucose DMEM supplemented with 10% fetal calf serum and 0.6% Seaplaque agarose (FMC BioProducts, Rockland, Me.). The top layer contained serial dilutions of cells ranging between 10^3 and 10^6 in low-glucose DMEM supplemented with 10% fetal calf serum and 0.3% Seaplaque agarose.

p53 = p53 (Homo sapiens, UniProt P04637); type: binding
Sequence of p53 (P04637 whole entry): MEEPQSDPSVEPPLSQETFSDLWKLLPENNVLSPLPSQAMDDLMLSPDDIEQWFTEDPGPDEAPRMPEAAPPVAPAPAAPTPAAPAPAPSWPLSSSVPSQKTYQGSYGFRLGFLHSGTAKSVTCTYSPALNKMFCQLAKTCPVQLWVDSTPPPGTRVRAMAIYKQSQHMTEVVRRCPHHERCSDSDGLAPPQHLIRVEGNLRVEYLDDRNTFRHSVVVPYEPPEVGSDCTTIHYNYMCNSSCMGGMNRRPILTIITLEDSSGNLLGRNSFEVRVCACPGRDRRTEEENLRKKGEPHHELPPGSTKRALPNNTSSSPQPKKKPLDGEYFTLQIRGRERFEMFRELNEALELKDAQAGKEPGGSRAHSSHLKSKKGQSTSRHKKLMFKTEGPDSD

## C[C@H]1c2cccc(O)c2C(=O)C2=C(O)[C@]3(O)C(=O)C(C(N)=O)=C(O)[C@@H](N(C)C)[C@@H]3[C@@H](O)[C@@H]21 [doxycycline]
[1]
  IC50: ~0.01 ng/mL (≈ 0.0225 nM)

B1: SV-T: wild-type SV40 large T antigen (protein, UniProt P03070 1-708, looked up)
Large T antigen: MDKVLNREESLQLMDLLGLERSAWGNIPLMRKAYLKKCKEFHPDKGGDEEKMKKMNTLYKKMEDGVKYAHQPDFGGFWDATEIPTYGTDEWEQWWNAFNEENLFCSEEMPSSDDEATADSQHSTPPKKKRKVEDPKDFPSELLSFLSHAVFSNRTLACFAIYTTKEKAALLYKKIMEKYSVTFISRHNSYNHNILFFLTPHRHRVSAINNYAQKLCTFSFLICKGVNKEYLMYSALTRDPFSVIEESLPGGLKEHDFNPEEAEETKQVSWKLVTEYAMETKCDDVLLLLGMYLEFQYSFEMCLKCIKKEQPSHYKYHEKHYANAAIFADSKNQKTICQQAVDTVLAKKRVDSLQLTREQMLTNRFNDLLDRMDIMFGSTGSADIEEWMAGVAWLHCLLPKMDSVVYDFLKCMVYNIPKKRYWLFKGPIDSGKTTLAAALLELCGGKALNVNLPLDRLNFELGVAIDQFLVVFEDVKGTGGESRDLPSGQGINNLDNLRDYLDGSVKVNLEKKHLNKRTQIFPPGIVTMNEYSVPKTLQARFVKQIDFRPKDYLKHCLERSEFLLEKRIIQSGIALLLMLIWYRPVAEFAQSIQSRIVEWKERLDKEFSLSVYQKMKFNVAMGIGVLDWLRNSDDDDEDSQENADKNEDGGEKNMEDSGHETGIDSQSQGSFQAPQSSQSVHDHNQPYHICRGFTCFKKPPTPPPEPET
Human RB
  Observed signal compared to T, binding to RB: 100%
p107
  Observed signal compared to T, binding to p107: 100%
T24 cell line
  soft agar cloning efficiency: 0.10%±0.02%
p53
  Observed signal compared to T, binding to p53: 100%
